Test results: paper PMC8894342, “Humanization of a strategic CD3 epitope enables evaluation of clinical T-cell engagers in a fully immunocompetent in vivo model” (Scientific Reports, 2022)
Substitutions are numbered along the chain they refer to.

B1: hCD3.1 Fab (Fab, V domains shown)
VH: EVQLVESGGGLVQPGGSLRLSCAASGFTFSDYYMTWVRQAPGKGLEWVAFIRNRARGYTSDHNPSVKGRFTISRDNAKNSLYLQMNSLRAEDTAVYYCARDRPSYYVLDYWGQGTTVTVSS
VL: DIVMTQSPDSLAVSLGERATINCKSSQSLFNVRSRKNYLAWYQQKPGQPPKLLISWASTRESGVPDRFSGSGSGTDFTLTISSLQAEDVAVYYCKQSYDLFTFGSGTKLEIK
notes: VH of hCD3.1; CH1 of the Fab; VL of hCD3.1; CL of the Fab; Anti-human CD3 arm of a clinical T-cell engager; cloned in pTT5 with an N-terminal osteonectin signal peptide; source: Expi293, transient, purified (Ni Sepharose excel, Superdex 200)
B2: hCD3.4 Fab (Fab, V domains shown)
VH: QVQLVQSGAEVKKPGASVKVSCKASGFNIKDYYMHWVRQAPGQRLEWMGWIDLENGNTIYDPKFQGRVTITRDTSASTAYMELSSLRSEDTAVYYCARDGYGRYFYDVWGQGTLVTVSS
VL: B1 VL with F30L, V32S, S34T, R35G, S55Y, D99S, L100R, F101R, S105G, L109V
notes: VH of hCD3.4; CH1 of the Fab; VL of hCD3.4; CL of the Fab; Anti-human CD3 arm of a clinical T-cell engager; cloned in pTT5 with an N-terminal osteonectin signal peptide; source: Expi293, transient, purified (Ni Sepharose excel, Superdex 200)
B3: 2C11 Fab (Fab, V domains shown)
VH: EVQLVESGGGLVQPGKSLKLSCEASGFTFSGYGMHWVRQAPGRGLESVAYITSSSINIKYADAVKGRFTVSRDNAKNLLFLQMNILKSEDTAMYYCARFDWDKNYWGQGTMVTVSS
VL: DIQMTQSPSSLPASLGDRVTINCQASQDISNYLNWYQQKPGKAPKLLIYYTNKLADGVPSRFSGSGSGRDSSFTISSLESEDIGSYYCQQYYNYPWTFGPGTKLEIK
notes: VH of 2C11; CH1 of the Fab; VL of 2C11; CL of the Fab; Murine surrogate anti-CD3 clone; cloned in pTT5 with an N-terminal osteonectin signal peptide; also called m2C11; source: Expi293, transient, purified (Ni Sepharose excel, Superdex 200)
B4: hCD3.5 Fab (Fab, V domains shown)
VH: not shown
VL: QAVVTQEPSLTVSPGGTVTLTCGSSTGAVTTSNYANWVQEKPGQAFRGLIGGTNKRAPGTPARFSGSLLGGKAALTLSGAQPEDEAEYYCALWYSNLWVFGGGTKLTVL
notes: VH of hCD3.5; CH1 of the Fab; VL of hCD3.5; CL of the Fab; Anti-human CD3 arm of a clinical T-cell engager; cloned in pTT5 with an N-terminal osteonectin signal peptide; source: Expi293, transient, purified (Ni Sepharose excel, Superdex 200)
B5: hCD3.2 Fab (Fab, V domains shown)
VH: EVQLVESGGGLVQPGGSLRLSCAASGFTFNTYAMNWVRQAPGKGLEWVARIRSKYNNYATYYAASVKGRFTISRDDSKNSLYLQMNSLKTEDTAVYYCARHGNFGNSYVSWFAYWGQGTLVTVSS
VL: B4 VL with A2T, G23R, E40Q, F46P, A80V
notes: VH of hCD3.2; CH1 of the Fab; VL of hCD3.2; CL of the Fab; Anti-human CD3 arm of a clinical T-cell engager; cloned in pTT5 with an N-terminal osteonectin signal peptide; source: Expi293, transient, purified (Ni Sepharose excel, Superdex 200)
B6: SP34 Fab (Fab, V domains shown)
VH: EVQLVESGGGLVQPKGSLKLSCAASGFTFNTYAMNWVRQAPGKGLEWVARIRSKYNNYATYYADSVKDRFTISRDDSQSILYLQMNNLKTEDTAMYYCVRHGNFGNSYVSWFAYWGQGTLVTVSA
VL: QAVVTQESALTTSPGETVTLTCRSSTGAVTTSNYANWVQEKPDHLFTGLIGGTNKRAPGVPARFSGSLIGDKAALTITGAQTEDEAIYCALWYSNLWVFGGGTKLTVL
notes: VH of SP34; CH1 of the Fab; VL of SP34; CL of the Fab; Cyno cross-reactive anti-human CD3 clone; cloned in pTT5 with an N-terminal osteonectin signal peptide; source: Expi293, transient, purified (Ni Sepharose excel, Superdex 200)

Each binder was assayed against T1, chimeric human/murine CD3E - murine CD3D Fc-tagged heterodimer (Mus musculus CD3E/D with human CD3E …, UniProt P07766;P22646;P04235, chimera) (assay: SPR; Fc-tagged CD3E/D variants captured on a C1 chip by amine-coupled anti-human Fc or anti-murine Fc pAb; concentration series of Fab; HBS pH 7.4, 0.05% Tween-20, 1 g/L BSA, 37 °C; 1:1 Langmuir model with mass transport). Conditions: both partners purified.
T1 construct: CD3 epsilon, mouse, with a 5-residue N-terminal stretch replaced by an 11-residue stretch of human CD3E; CD3 delta, mouse; also called Chimeric human/murine CD3E/D; h/mCD3E-mCD3D; source: Expi293, transiently co-expressed, purified (MabSelect Sure LX, Superdex 200)
T1 sequence (P22646 22-189, stated change not applied, chain 1 of 2): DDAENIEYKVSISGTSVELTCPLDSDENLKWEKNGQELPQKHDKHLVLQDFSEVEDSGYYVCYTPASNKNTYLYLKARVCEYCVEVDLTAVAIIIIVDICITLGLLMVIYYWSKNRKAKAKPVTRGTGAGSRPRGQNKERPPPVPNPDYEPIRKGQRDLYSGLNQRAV
T1 sequence (P04235 22-173, stated change not applied, chain 2 of 2): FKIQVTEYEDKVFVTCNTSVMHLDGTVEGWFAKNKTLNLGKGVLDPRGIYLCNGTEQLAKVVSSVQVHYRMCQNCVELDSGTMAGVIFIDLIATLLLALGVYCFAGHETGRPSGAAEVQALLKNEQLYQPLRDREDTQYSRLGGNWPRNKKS

Kd	Binder
8.6 ± 0.53 nM	B1
3.1 ± 0.23 nM	B2
250 ± 16 nM	B3
4.4 ± 0.27 nM	B4
4.2 ± 0.22 nM	B5
7.3 ± 0.18 nM	B6

What follows are binders tested against T2, Fc-tagged human CD3E/D heterodimer (Homo sapiens, UniProt P07766;P04234) in the same assay as above. Conditions: both partners purified.
T2 construct: CD3 epsilon, human; CD3 delta, human; also called hCD3E/D; source: Expi293, transiently co-expressed, purified (MabSelect Sure LX, Superdex 200)
T2 sequence (P07766 23-207, chain 1 of 2): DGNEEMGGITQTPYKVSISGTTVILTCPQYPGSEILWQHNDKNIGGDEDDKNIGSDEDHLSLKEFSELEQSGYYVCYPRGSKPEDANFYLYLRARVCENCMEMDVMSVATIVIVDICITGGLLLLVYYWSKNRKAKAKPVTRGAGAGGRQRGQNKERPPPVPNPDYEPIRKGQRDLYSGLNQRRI
T2 sequence (P04234 22-171, chain 2 of 2): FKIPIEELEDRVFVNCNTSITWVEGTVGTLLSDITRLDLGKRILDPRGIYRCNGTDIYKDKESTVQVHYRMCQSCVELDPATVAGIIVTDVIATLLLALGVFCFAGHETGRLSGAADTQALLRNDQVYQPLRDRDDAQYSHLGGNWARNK

Kd	binding result	Binder
6.3 ± 0.18 nM	–	B1
2.7 ± 0.45 nM	–	B2
–	no binding	B3
4.1 ± 0.44 nM	–	B4
3.1 ± 0.35 nM	–	B5
6.6 ± 0.46 nM	–	B6

What follows are binders tested against T3, Fc-tagged murine CD3E/D heterodimer (Mus musculus, UniProt P22646;P04235) in the same assay as above. Conditions: both partners purified.
T3 construct: CD3 epsilon, mouse; CD3 delta, mouse; also called mCD3E/D; source: Expi293, transiently co-expressed, purified (MabSelect Sure LX, Superdex 200)
T3 sequence (P22646 22-189, chain 1 of 2): as the sequence (P22646 22-189, stated change not applied, chain 1 of 2) above
T3 sequence (P04235 22-173, chain 2 of 2): as the sequence (P04235 22-173, stated change not applied, chain 2 of 2) above

binding result	Kd	Binder
no binding	–	B1
no binding	–	B2
–	22 ± 1.4 nM	B3
no binding	–	B4
no binding	–	B5
no binding	–	B6

Each binder was assayed against T4, Fc-tagged cyno CD3E/D heterodimer (Macaca fascicularis, UniProt Q95LI5;Q95LI8) in the same assay as above. Conditions: both partners purified.
T4 construct: CD3 epsilon, cynomolgus monkey; CD3 delta, cynomolgus monkey; source: Expi293, transiently co-expressed, purified (MabSelect Sure LX, Superdex 200)
T4 sequence (Q95LI5 22-198, chain 1 of 2): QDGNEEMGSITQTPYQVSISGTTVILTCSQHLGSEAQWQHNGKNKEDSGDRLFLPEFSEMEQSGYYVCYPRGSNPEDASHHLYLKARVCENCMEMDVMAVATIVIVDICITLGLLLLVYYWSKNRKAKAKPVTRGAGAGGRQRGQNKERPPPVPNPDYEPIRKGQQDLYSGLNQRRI
T4 sequence (Q95LI8 22-171, chain 2 of 2): as the sequence (P04234 22-171, chain 2 of 2) above, with I5V, N15K, I20V, S32T, D33N, I34N, T64A, S74N, V83L, H141R counted along it

Kd	binding result	Binder
6.5 ± 0.11 nM	–	B1
2.7 ± 0.02 nM	–	B2
–	no binding	B3
5 ± 0.5 nM	–	B4
3.8 ± 0.61 nM	–	B5
7.5 ± 0.06 nM	–	B6
